Results reported in patent US10800847.

Columns and labels:
HLA-B*1401 (B64) (human) = assay: iBead MFI against regular-bead MFI, IVIg diluted 1:8
HLA-B*0801 (B8) (human) = assay: as above
HLA-B*1503 (B72) (human) = assay: as above
HLA-B*1512 (B76) (human) = assay: as above
[1] = biological target: Serum albumin on negative control beads (HSA/BSA) (human or bovine); assay: as above
HLA-B*1501 (B62) (human) = assay: as above
HLA-B*1513 (B77) (human) = assay: as above
HLA-B*1402 (B65) (human) = assay: as above
HLA-B*1511 (B75) (human) = assay: as above
HLA-B*1801 (B18) (human) = assay: as above
HLA-B*1510 (B71) (human) = assay: as above
HLA-B*0702 (B7) (human) = assay: as above
[2] = biological target: HLA-A*3601 (A36) single antigen on beads (human); assay: Luminex single-antigen regular beads (#7), IVIg 1:8
[3] = biological target: HLA-A*3401 (A34) single antigen on beads (human); assay: as above
[4] = biological target: HLA-A*2902 (A29) single antigen on beads (human); assay: as above
[5] = biological target: HLA-A*3402 (A34) single antigen on beads (human); assay: as above
[6] = biological target: HLA-A*3301 (A33) single antigen on beads (human); assay: as above
[7] = biological target: HLA-A*3001 (A30) single antigen on beads (human); assay: as above
[8] = biological target: HLA-A*3101 (A31) single antigen on beads (human); assay: as above
[9] = biological target: HLA-A*6801 (A68) single antigen on beads (human); assay: as above
[10] = biological target: HLA-A*6602 (A66) single antigen on beads (human); assay: as above
[11] = biological target: HLA-A*6601 (A66) single antigen on beads (human); assay: as above
[12] = biological target: HLA-A*3201 (A32) single antigen on beads (human); assay: as above
[13] = biological target: HLA-A*3303 (A33) single antigen on beads (human); assay: as above
[14] = biological target: HLA-A*3002 (A30) single antigen on beads (human); assay: as above
HLA-B*8201 (B82) (human) = assay: Luminex, iBeads (#6), 1:8
[15] = biological target: HLA-Cw*1203 (Cw12) (human); assay: Luminex, iBeads (#6), 1:8
[16] = biological target: HLA-Cw*1601 (Cw16) (human); assay: Luminex, iBeads (#6), 1:8
[17] = biological target: HLA-Cw*0801 (Cw8) (human); assay: Luminex, iBeads (#6), 1:8
[18] = biological target: HLA-Cw*0304 (Cw10) (human); assay: Luminex, iBeads (#6), 1:8
[19] = biological target: HLA-Cw*0302 (Cw10) (human); assay: Luminex, iBeads (#6), 1:8
[20] = biological target: HLA-Cw*0501 (Cw5) (human); assay: Luminex, iBeads (#6), 1:8
[21] = biological target: HLA-Cw*0602 (Cw6) (human); assay: Luminex, iBeads (#6), 1:8
[22] = biological target: HLA-Cw*0303 (Cw9) (human); assay: Luminex, iBeads (#6), 1:8
[23] = biological target: Albumin (negative control beads) (human or bovine); assay: Luminex, iBeads (#6), 1:8
[24] = biological target: HLA-Cw*1802 (Cw18) (human); assay: Luminex, iBeads (#6), 1:8
[25] = biological target: HLA-Cw*1701 (Cw17) (human); assay: Luminex, iBeads (#6), 1:8
HLA-B*1302 (B13) (human) = assay: iBead MFI against regular-bead MFI, IVIg diluted 1:8
HLA-B*1301 (B13) (human) = assay: as above
HLA-B*1502 (B75) (human) = assay: as above
[26] = biological target: HLA-A*6901 (A69) single antigen on Luminex beads (human); assay: Luminex single antigen bead assay, iBeads vs regular beads, IVIg 1:8
[27] = biological target: HLA-A*8001 (A80) single antigen on Luminex beads (human); assay: as above
[28] = biological target: HLA-A*6901 (A69) single antigen on Luminex beads (human); assay: Luminex single antigen bead assay, regular beads (#7), IVIg 1:8
[29] = biological target: HLA-A*8001 (A80) single antigen on Luminex beads (human); assay: as above
[30] = biological target: HLA-A*7401 (A74) single antigen on Luminex beads (human); assay: as above

## IVIg GamaSTAN S/D (Talecris Biotherapeutics, USA) (antibody)
HLA-B*1401 (B64) (human)
  Difference % (iBead vs regular bead): -85%
HLA-B*0801 (B8) (human)
  Difference % (iBead vs regular bead): -63%
HLA-B*1503 (B72) (human)
  Difference % (iBead vs regular bead): -100%
HLA-B*1512 (B76) (human)
  Difference % (iBead vs regular bead): 125%
[1]
  Difference % (iBead vs regular bead): 33%
HLA-B*1501 (B62) (human)
  Difference % (iBead vs regular bead): 270%
HLA-B*1513 (B77) (human)
  Difference % (iBead vs regular bead): -27%
HLA-B*1402 (B65) (human)
  Difference % (iBead vs regular bead): -100%
HLA-B*1511 (B75) (human)
  Difference % (iBead vs regular bead): -16%
HLA-B*1801 (B18) (human)
  Difference % (iBead vs regular bead): 0%
HLA-B*1510 (B71) (human)
  Difference % (iBead vs regular bead): -43%
HLA-B*0702 (B7) (human)
  Difference % (iBead vs regular bead): -10%
[2]
  MFI: 564 MFI
[3]
  MFI: 3040 MFI
[4]
  MFI: 991 MFI
[5]
  MFI: 684 MFI
[6]
  MFI: 1120 MFI
[7]
  MFI: 924 MFI
[8]
  MFI: 121 MFI
[9]
  MFI: 192 MFI
[10]
  MFI: 2360 MFI
[11]
  MFI: 1410 MFI
[12]
  MFI: 856 MFI
[13]
  MFI: 322 MFI
[14]
  MFI: 1050 MFI
HLA-B*8201 (B82) (human)
  MFI: 4260 MFI
[15]
  MFI: 2660 MFI
[16]
  MFI: 2950 MFI
[17]
  MFI: 1940 MFI
[18]
  MFI: 2750 MFI
[19]
  MFI: 2380 MFI
[20]
  MFI: 6350 MFI
[21]
  MFI: 8180 MFI
[22]
  MFI: 2610 MFI
[23]
  MFI: 5030 MFI
[24]
  MFI: 7810 MFI
[25]
  MFI: 9610 MFI

## IVIg Gamunex-C Lot NKLK1 (antibody)
HLA-B*1302 (B13) (human)
  Difference % (iBead vs regular bead): -100%
HLA-B*1401 (B64) (human)
  Difference % (iBead vs regular bead): -82%
HLA-B*1301 (B13) (human)
  Difference % (iBead vs regular bead): -71%
HLA-B*0801 (B8) (human)
  Difference % (iBead vs regular bead): -100%
HLA-B*1503 (B72) (human)
  Difference % (iBead vs regular bead): -100%
HLA-B*1512 (B76) (human)
  Difference % (iBead vs regular bead): 51%
[1]
  Difference % (iBead vs regular bead): -24%
HLA-B*1501 (B62) (human)
  Difference % (iBead vs regular bead): 253%
HLA-B*1402 (B65) (human)
  Difference % (iBead vs regular bead): -100%
HLA-B*1511 (B75) (human)
  Difference % (iBead vs regular bead): -51%
HLA-B*1801 (B18) (human)
  Difference % (iBead vs regular bead): -100%
HLA-B*1510 (B71) (human)
  Difference % (iBead vs regular bead): -79%
HLA-B*1502 (B75) (human)
  Difference % (iBead vs regular bead): -94%
HLA-B*0702 (B7) (human)
  Difference % (iBead vs regular bead): -100%
[2]
  MFI: 704 MFI
[3]
  MFI: 2150 MFI
[4]
  MFI: 820 MFI
[5]
  MFI: 0 MFI
[6]
  MFI: 925 MFI
[7]
  MFI: 1230 MFI
[8]
  MFI: 0 MFI
[9]
  MFI: 0 MFI
[10]
  MFI: 838 MFI
[11]
  MFI: 875 MFI
[12]
  MFI: 424 MFI
[13]
  MFI: 179 MFI
[14]
  MFI: 562 MFI
[26]
  Difference % (iBead MFI against regular bead MFI): 4%
[27]
  Difference % (iBead MFI against regular bead MFI): -29%
HLA-B*8201 (B82) (human)
  MFI: -193 MFI
[15]
  MFI: 1950 MFI
[16]
  MFI: 1560 MFI
[17]
  MFI: 467 MFI
[18]
  MFI: 1820 MFI
[19]
  MFI: 1770 MFI
[20]
  MFI: 2020 MFI
[21]
  MFI: 2110 MFI
[22]
  MFI: 1660 MFI
[23]
  MFI: 7800 MFI
[24]
  MFI: 1480 MFI
[25]
  MFI: 3250 MFI
[28]
  MFI: 2780 MFI
[29]
  MFI: 1680 MFI
[30]
  MFI: 224 MFI

## IVIg Gamunex-C Lot NKLG1 (antibody)
HLA-B*1302 (B13) (human)
  Difference % (iBead vs regular bead): -45%
HLA-B*1401 (B64) (human)
  Difference % (iBead vs regular bead): -33%
HLA-B*1301 (B13) (human)
  Difference % (iBead vs regular bead): -31%
HLA-B*0801 (B8) (human)
  Difference % (iBead vs regular bead): -31%
HLA-B*1503 (B72) (human)
  Difference % (iBead vs regular bead): -79%
HLA-B*1512 (B76) (human)
  Difference % (iBead vs regular bead): 244%
HLA-B*1513 (B77) (human)
  Difference % (iBead vs regular bead): -45%
HLA-B*1511 (B75) (human)
  Difference % (iBead vs regular bead): -17%
HLA-B*1801 (B18) (human)
  Difference % (iBead vs regular bead): 112%
HLA-B*1510 (B71) (human)
  Difference % (iBead vs regular bead): 1%
HLA-B*1502 (B75) (human)
  Difference % (iBead vs regular bead): 32%
HLA-B*0702 (B7) (human)
  Difference % (iBead vs regular bead): 39%
[2]
  MFI: 916 MFI
[3]
  MFI: 3540 MFI
[4]
  MFI: 1750 MFI
[5]
  MFI: 0 MFI
[6]
  MFI: 1690 MFI
[8]
  MFI: 166 MFI
[9]
  MFI: 0 MFI
[11]
  MFI: 648 MFI
[12]
  MFI: 875 MFI
[13]
  MFI: 476 MFI
[14]
  MFI: 896 MFI
[26]
  Difference % (iBead MFI against regular bead MFI): 122%
[27]
  Difference % (iBead MFI against regular bead MFI): 24%
HLA-B*8201 (B82) (human)
  MFI: 2730 MFI
[15]
  MFI: 4810 MFI
[16]
  MFI: 4070 MFI
[18]
  MFI: 4140 MFI
[19]
  MFI: 4870 MFI
[20]
  MFI: 4010 MFI
[21]
  MFI: 4230 MFI
[22]
  MFI: 4290 MFI
[23]
  MFI: 7150 MFI
[24]
  MFI: 3580 MFI
[25]
  MFI: 6150 MFI
[28]
  MFI: 2810 MFI
[29]
  MFI: 3190 MFI
[30]
  MFI: 666 MFI
